Test results published in paper PMC8294337 (BBA advances, 2021).

Biological target: the molecule itself
Experiment: SDS-PAGE

B1: T74S KcsA (pH-gated potassium channel KcsA with the mutation T74S) (natural protein, UniProt P0A334 1-160, looked up)
chain: MPPMLSGLLARLVKLLLGRHGSALHWRAAGAATVLLVIVLLAGSYLAVLAERGAPGAQLITYPRALWWSVETASTVGYGDLYPVTLWGRLVAVVVMVAGITSFGLVTAALATWFVGREQERRGHFVRHSEKAAEEAYTRTTRALHERFDRLERMLDDNRR
stoichiometry N: 4
